B1: RIPK4 (parent)
chain: VSVNAQTLDGRTPLHLAAQRGHYR

Variants of: B1
Assay: protein stability index of a GFP-peptide fusion (GPS, HEK-293T) (PSI 1-6); higher = more stable
Settings: c terminus: a fixed tail appended
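Also: lentivirally expressed fusions sorted by FACS into six bins by GFP to DsRed ratio, PSI derived from sequencing read proportions per bin multiplied by bin number.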

Variant | protein stability index
VTVNAQTLDGRTPLHLAAQRGHYR | 2.91
VVVNAQTLDGRTPLHLAAQRGHYR | 2.22
VWVNAQTLDGRTPLHLAAQRGHYR | 2.3
VYVNAQTLDGRTPLHLAAQRGHYR | 2.82
VSANAQTLDGRTPLHLAAQRGHYR | 3.85
VSCNAQTLDGRTPLHLAAQRGHYR | 3.12
VSDNAQTLDGRTPLHLAAQRGHYR | 4.13
VSENAQTLDGRTPLHLAAQRGHYR | 4.86
VSFNAQTLDGRTPLHLAAQRGHYR | 2.96
VSGNAQTLDGRTPLHLAAQRGHYR | 3.9
VSHNAQTLDGRTPLHLAAQRGHYR | 4.67
VSINAQTLDGRTPLHLAAQRGHYR | 2.67
VSKNAQTLDGRTPLHLAAQRGHYR | 3.6
VSLNAQTLDGRTPLHLAAQRGHYR | 3.35
VSMNAQTLDGRTPLHLAAQRGHYR | 3.73
VSNNAQTLDGRTPLHLAAQRGHYR | 4.49
VSPNAQTLDGRTPLHLAAQRGHYR | 3.83
VSQNAQTLDGRTPLHLAAQRGHYR | 4.22
VSRNAQTLDGRTPLHLAAQRGHYR | 4.33
VSSNAQTLDGRTPLHLAAQRGHYR | 3.97
VSTNAQTLDGRTPLHLAAQRGHYR | 3.53
VSWNAQTLDGRTPLHLAAQRGHYR | 2.69
VSYNAQTLDGRTPLHLAAQRGHYR | 2.75
VSVAAQTLDGRTPLHLAAQRGHYR | 3.17

Variant | protein stability index
VSVCAQTLDGRTPLHLAAQRGHYR | 3.18
VSVDAQTLDGRTPLHLAAQRGHYR | 3.86
VSVEAQTLDGRTPLHLAAQRGHYR | 3.17
VSVFAQTLDGRTPLHLAAQRGHYR | 2.06
VSVGAQTLDGRTPLHLAAQRGHYR | 3.3
VSVHAQTLDGRTPLHLAAQRGHYR | 3.46
VSVIAQTLDGRTPLHLAAQRGHYR | 2.44
VSVKAQTLDGRTPLHLAAQRGHYR | 3.51
VSVLAQTLDGRTPLHLAAQRGHYR | 2.69
VSVMAQTLDGRTPLHLAAQRGHYR | 2.66
VSVPAQTLDGRTPLHLAAQRGHYR | 3.42
VSVQAQTLDGRTPLHLAAQRGHYR | 3.41
VSVRAQTLDGRTPLHLAAQRGHYR | 3.21
VSVSAQTLDGRTPLHLAAQRGHYR | 2.86
VSVTAQTLDGRTPLHLAAQRGHYR | 3.04
VSVVAQTLDGRTPLHLAAQRGHYR | 2.53
VSVWAQTLDGRTPLHLAAQRGHYR | 2.06
VSVYAQTLDGRTPLHLAAQRGHYR | 3.12
VSVNCQTLDGRTPLHLAAQRGHYR | 3.88
VSVNDQTLDGRTPLHLAAQRGHYR | 4.28
VSVNEQTLDGRTPLHLAAQRGHYR | 3.73
VSVNFQTLDGRTPLHLAAQRGHYR | 2.61
VSVNGQTLDGRTPLHLAAQRGHYR | 3.02
VSVNHQTLDGRTPLHLAAQRGHYR | 3.36

Variant | protein stability index
VSVNIQTLDGRTPLHLAAQRGHYR | 2.19
VSVNKQTLDGRTPLHLAAQRGHYR | 3.69
VSVNLQTLDGRTPLHLAAQRGHYR | 2.76
VSVNMQTLDGRTPLHLAAQRGHYR | 2.77
VSVNNQTLDGRTPLHLAAQRGHYR | 3.53
VSVNPQTLDGRTPLHLAAQRGHYR | 3.12
VSVNQQTLDGRTPLHLAAQRGHYR | 3.13
VSVNRQTLDGRTPLHLAAQRGHYR | 2.94
VSVNSQTLDGRTPLHLAAQRGHYR | 3.37
VSVNTQTLDGRTPLHLAAQRGHYR | 3.52
VSVNVQTLDGRTPLHLAAQRGHYR | 2.64
VSVNWQTLDGRTPLHLAAQRGHYR | 2.83
VSVNYQTLDGRTPLHLAAQRGHYR | 3.1
VSVNAATLDGRTPLHLAAQRGHYR | 3.43
VSVNACTLDGRTPLHLAAQRGHYR | 2.62
VSVNADTLDGRTPLHLAAQRGHYR | 3.93
VSVNAETLDGRTPLHLAAQRGHYR | 2.95
VSVNAFTLDGRTPLHLAAQRGHYR | 2.22
VSVNAGTLDGRTPLHLAAQRGHYR | 3.13
VSVNAHTLDGRTPLHLAAQRGHYR | 3.52
VSVNAITLDGRTPLHLAAQRGHYR | 2.69
VSVNAKTLDGRTPLHLAAQRGHYR | 3.21
VSVNALTLDGRTPLHLAAQRGHYR | 3.69
VSVNAMTLDGRTPLHLAAQRGHYR | 2.87

Variant | protein stability index
VSVNANTLDGRTPLHLAAQRGHYR | 3.03
VSVNAPTLDGRTPLHLAAQRGHYR | 3.96
VSVNARTLDGRTPLHLAAQRGHYR | 3.02
VSVNASTLDGRTPLHLAAQRGHYR | 3.78
VSVNATTLDGRTPLHLAAQRGHYR | 3.44
VSVNAVTLDGRTPLHLAAQRGHYR | 2.68
VSVNAWTLDGRTPLHLAAQRGHYR | 2.49
VSVNAYTLDGRTPLHLAAQRGHYR | 2.59
VSVNAQALDGRTPLHLAAQRGHYR | 3.34
VSVNAQCLDGRTPLHLAAQRGHYR | 2.8
VSVNAQDLDGRTPLHLAAQRGHYR | 3.77
VSVNAQELDGRTPLHLAAQRGHYR | 3.94
VSVNAQFLDGRTPLHLAAQRGHYR | 2.11
VSVNAQGLDGRTPLHLAAQRGHYR | 3.35
VSVNAQHLDGRTPLHLAAQRGHYR | 3.12
VSVNAQILDGRTPLHLAAQRGHYR | 2.63
VSVNAQKLDGRTPLHLAAQRGHYR | 3.36
VSVNAQLLDGRTPLHLAAQRGHYR | 3.2
VSVNAQMLDGRTPLHLAAQRGHYR | 2.98
VSVNAQNLDGRTPLHLAAQRGHYR | 3.64
VSVNAQPLDGRTPLHLAAQRGHYR | 3.36
VSVNAQQLDGRTPLHLAAQRGHYR | 4.04

Reference: the supplement of paper PMC10567573
